# From publication PMC10397247
# T1: 4H591-bN
# T1 chain: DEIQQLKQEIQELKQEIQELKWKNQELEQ
# T2: 4H626-bN
# T2 chain: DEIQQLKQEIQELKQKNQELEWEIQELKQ
# T3: 4H918-bN
# T3 chain: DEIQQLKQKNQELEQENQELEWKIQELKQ
# T4: 4H3926-bN
# T4 chain: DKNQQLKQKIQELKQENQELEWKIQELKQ
# T5: 4H855-bN
# T5 chain: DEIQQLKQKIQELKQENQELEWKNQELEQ
# T6: 4H457-bN
# T6 chain: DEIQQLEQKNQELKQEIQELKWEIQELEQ
# T7: 4H953-bN
# T7 chain: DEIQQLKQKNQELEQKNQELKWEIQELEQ
# T8: 4H968-bN
# T8 chain: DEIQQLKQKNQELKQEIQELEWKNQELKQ
# T9: 4H4073-bN
# T9 chain: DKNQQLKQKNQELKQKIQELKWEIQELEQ
# T10: 4H780-bN
# T10 chain: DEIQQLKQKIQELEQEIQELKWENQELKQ
# T11: 4H683-bN
# T11 chain: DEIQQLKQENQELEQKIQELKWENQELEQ
# T12: 4H754-bN
# T12 chain: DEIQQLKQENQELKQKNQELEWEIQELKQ
# T13: 4H797-bN
# T13 chain: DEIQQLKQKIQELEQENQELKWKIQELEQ
# T14: 4H575-bN
# T14 chain: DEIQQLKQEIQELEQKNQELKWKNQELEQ
# T15: 4H906-bN
# T15 chain: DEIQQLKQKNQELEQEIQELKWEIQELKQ
# T16: APC9182-AA
# T16 chain: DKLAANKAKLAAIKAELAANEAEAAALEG
# T17: APC9141-AA
# T17 chain: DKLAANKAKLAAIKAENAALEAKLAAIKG
# T18: APC9291-AA
# T18 chain: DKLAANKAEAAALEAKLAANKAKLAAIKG
# T19: APC5009-AA
# T19 chain: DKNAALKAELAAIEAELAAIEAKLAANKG
# T20: APC4100-AA
# T20 chain: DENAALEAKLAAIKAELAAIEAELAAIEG
# T21: APC8516-AA
# T21 chain: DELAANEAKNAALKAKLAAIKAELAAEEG
# T22: APC4336-AA
# T22 chain: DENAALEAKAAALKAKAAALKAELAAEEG
# T23: APC6088-AA
# T23 chain: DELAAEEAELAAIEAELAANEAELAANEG
# T24: APC3881-AA
# T24 chain: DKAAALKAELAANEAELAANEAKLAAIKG
# T25: APC9806-AA
# T25 chain: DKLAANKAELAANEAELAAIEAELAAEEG
# T26: APC8401-AA
# T26 chain: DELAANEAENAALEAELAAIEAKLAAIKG
# T27: APC542-AA
# T27 chain: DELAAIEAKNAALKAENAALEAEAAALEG
# T28: APC5531-AA
# T28 chain: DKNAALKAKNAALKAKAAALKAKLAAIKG
# T29: APC7524-AA
# T29 chain: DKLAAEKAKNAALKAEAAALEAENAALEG
# T30: 4H730-bA
# T30 chain: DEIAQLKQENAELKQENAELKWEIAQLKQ
# T31: 4H56-bA
# T31 chain: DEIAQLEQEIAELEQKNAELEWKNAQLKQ
# T32: 4H3381-bA
# T32 chain: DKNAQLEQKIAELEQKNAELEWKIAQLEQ
# T33: 4H4001-bA
# T33 chain: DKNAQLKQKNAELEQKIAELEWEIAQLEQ
# T34: 4H949-bA
# T34 chain: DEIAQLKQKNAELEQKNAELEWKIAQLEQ
# T35: 4H796-bA
# T35 chain: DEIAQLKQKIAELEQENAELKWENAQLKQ
# T36: 4H932-bA
# T36 chain: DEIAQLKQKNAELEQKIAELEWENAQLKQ
# T37: 4H349-bA
# T37 chain: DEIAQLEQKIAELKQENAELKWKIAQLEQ
# T38: O9-bH
# T38 chain: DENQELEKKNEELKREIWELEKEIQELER
# B1: 4H3926-bN (peptide)
# chain: DKNQQLKQKIQELKQENQELEWKIQELKQ
# B2: APC3881-AA (peptide)
# chain: DKAAALKAELAANEAELAANEAKLAAIKG
# B3: 4H3381-bA (peptide)
# chain: DKNAQLEQKIAELEQKNAELEWKIAQLEQ
# B4: O9-bH (peptide)
# chain: DENQELEKKNEELKREIWELEKEIQELER
# Tests used:
# 4H591-bN = biological target: T1, 4H591-bN; experiment: two-hybrid library CCNG1;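 note: natural log of median RNA to DNA barcode read ratio; higher means stronger binding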
# 4H626-bN = biological target: T2, 4H626-bN; experiment: two-hybrid library CCNG1;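 note: natural log of median RNA to DNA barcode read ratio; higher means stronger binding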
# 4H918-bN = biological target: T3, 4H918-bN; experiment: two-hybrid library CCNG1;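 note: natural log of median RNA to DNA barcode read ratio; higher means stronger binding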
# 4H3926-bN = biological target: T4, 4H3926-bN; experiment: two-hybrid library CCNG1; details: mean of both orientations;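 note: natural log of median RNA to DNA barcode read ratio; higher means stronger binding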
# 4H855-bN = biological target: T5, 4H855-bN; experiment: two-hybrid library CCNG1;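 note: natural log of median RNA to DNA barcode read ratio; higher means stronger binding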
# 4H457-bN = biological target: T6, 4H457-bN; experiment: two-hybrid library CCNG1;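 note: natural log of median RNA to DNA barcode read ratio; higher means stronger binding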
# 4H953-bN = biological target: T7, 4H953-bN; experiment: two-hybrid library CCNG1
# 4H968-bN = biological target: T8, 4H968-bN; experiment: two-hybrid library CCNG1
# 4H4073-bN = biological target: T9, 4H4073-bN; experiment: two-hybrid library CCNG1
# 4H780-bN = biological target: T10, 4H780-bN; experiment: two-hybrid library CCNG1
# 4H683-bN = biological target: T11, 4H683-bN; experiment: two-hybrid library CCNG1
# 4H754-bN = biological target: T12, 4H754-bN; experiment: two-hybrid library CCNG1
# 4H797-bN = biological target: T13, 4H797-bN; experiment: two-hybrid library CCNG1
# 4H575-bN = biological target: T14, 4H575-bN; experiment: two-hybrid library CCNG1
# 4H906-bN = biological target: T15, 4H906-bN; experiment: two-hybrid library CCNG1
# APC9182-AA = biological target: T16, APC9182-AA; experiment: two-hybrid library CCmax; details: mean of both orientations
# APC9141-AA = biological target: T17, APC9141-AA; experiment: two-hybrid library CCmax; details: mean of both orientations
# APC9291-AA = biological target: T18, APC9291-AA; experiment: two-hybrid library CCmax; details: mean of both orientations
# APC5009-AA = biological target: T19, APC5009-AA; experiment: two-hybrid library CCmax
# APC4100-AA = biological target: T20, APC4100-AA; experiment: two-hybrid library CCmax; details: mean of both orientations
# APC8516-AA = biological target: T21, APC8516-AA; experiment: two-hybrid library CCmax; details: mean of both orientations
# APC4336-AA = biological target: T22, APC4336-AA; experiment: two-hybrid library CCmax; details: mean of both orientations
# APC6088-AA = biological target: T23, APC6088-AA; experiment: two-hybrid library CCmax; details: mean of both orientations
# APC3881-AA = biological target: T24, APC3881-AA; experiment: two-hybrid library CCmax
# APC9806-AA = biological target: T25, APC9806-AA; experiment: two-hybrid library CCmax; details: mean of both orientations
# APC8401-AA = biological target: T26, APC8401-AA; experiment: two-hybrid library CCmax; details: mean of both orientations
# APC542-AA = biological target: T27, APC542-AA; experiment: two-hybrid library CCmax; details: mean of both orientations
# APC5531-AA = biological target: T28, APC5531-AA; experiment: two-hybrid library CCmax; details: mean of both orientations
# APC7524-AA = biological target: T29, APC7524-AA; experiment: two-hybrid library CCmax; details: mean of both orientations
# 4H730-bA = biological target: T30, 4H730-bA; experiment: two-hybrid library CCNG1
# 4H56-bA = biological target: T31, 4H56-bA; experiment: two-hybrid library CCNG1
# 4H3381-bA = biological target: T32, 4H3381-bA; experiment: two-hybrid library CCNG1
# 4H4001-bA = biological target: T33, 4H4001-bA; experiment: two-hybrid library CCNG1
# 4H949-bA = biological target: T34, 4H949-bA; experiment: two-hybrid library CCNG1
# 4H796-bA = biological target: T35, 4H796-bA; experiment: two-hybrid library CCNG1
# 4H932-bA = biological target: T36, 4H932-bA; experiment: two-hybrid library CCNG1
# 4H349-bA = biological target: T37, 4H349-bA; experiment: two-hybrid library CCNG1
# O9-bH = biological target: T38, O9-bH; experiment: two-hybrid library CCNG1; details: mean of both orientations
binder,measurement,setting,value
B1,interaction score,4H591-bN,0.172
same,interaction score,4H626-bN,-0.388
same,interaction score,4H918-bN,-2.11
same,interaction score,4H3926-bN,-0.623
same,interaction score,4H855-bN,-0.684
same,interaction score,4H457-bN,1.06
same,interaction score,4H953-bN,-0.788
same,interaction score,4H968-bN,-0.934
same,interaction score,4H4073-bN,-1.26
same,interaction score,4H780-bN,-0.772
same,interaction score,4H683-bN,-1.15
same,interaction score,4H754-bN,-0.867
same,interaction score,4H797-bN,-0.358
same,interaction score,4H575-bN,0.813
same,interaction score,4H906-bN,-0.529
B2,interaction score,APC9182-AA,-1.63
same,interaction score,APC9141-AA,-1.38
same,interaction score,APC9291-AA,-2.12
same,interaction score,APC5009-AA,-1.15
same,interaction score,APC4100-AA,-1.25
same,interaction score,APC8516-AA,-1.39
same,interaction score,APC4336-AA,-1.5
same,interaction score,APC6088-AA,-1.78
same,interaction score,APC3881-AA,-1.67
same,interaction score,APC9806-AA,-1.72
same,interaction score,APC8401-AA,-1.61
same,interaction score,APC542-AA,-1.63
same,interaction score,APC5531-AA,-1.92
same,interaction score,APC7524-AA,-1.49
B3,interaction score,4H730-bA,-1.47
same,interaction score,4H56-bA,-0.961
same,interaction score,4H3381-bA,0.241
same,interaction score,4H4001-bA,-0.563
same,interaction score,4H949-bA,-1.1
same,interaction score,4H796-bA,-0.941
same,interaction score,4H932-bA,-0.845
same,interaction score,4H349-bA,-1.06
B4,interaction score,O9-bH,-0.295
